Experimental data: article PMC11928764
Like-named read-outs stand apart in the source and are kept apart here.

Assays:
[1] = molecular target: eSALO-WT (SALO, salivary anticomplement from Lutzomyia longipalpis, expressed by HEK293(T) cells) (Lutzomyia longipalpis) (UniProt Q5WPZ4); assay: SPR; eSALO-WT amine-coupled to a CMD200M chip (720 RU); analytes injected as two-fold series (15.6-1000 nM; 1.56-100 nM for C1 and C1r proenzyme); 25 °C, HBS-T (20 mM Hepes pH 7.4, 140 mM NaCl, 0.005% Tween-20); 1:1 model, apparent KD
[2] = molecular target: eSALO-WT (SALO, salivary anticomplement from Lutzomyia longipalpis, expressed by HEK293(T) cells) (Lutzomyia longipalpis) (UniProt Q5WPZ4); assay: SPR; biotinylated eSALO-WT captured on streptavidin (97 RU); single-cycle kinetics, C1r proenzyme 25-400 nM, zC1r-12SP 6.25-100 nM; 25 °C, HBS-T; two-state kinetic model, apparent KD
[3] = molecular target: eSALO-WT (SALO, salivary anticomplement from Lutzomyia longipalpis, expressed by HEK293(T) cells) (Lutzomyia longipalpis) (UniProt Q5WPZ4); assay: SPR; biotinylated eSALO-WT or mutants captured on streptavidin (50-73 RU); single-cycle kinetics, C1r proenzyme 25-400 nM, zC1r-12SP 6.25-100 nM; 25 °C, HBS-T; two-state binding model, apparent KD; mean ± SD of three injections
[4] = molecular target: eSALO-Y51F (Lutzomyia longipalpis); assay: as above
[5] = molecular target: eSALO-E58A (Lutzomyia longipalpis); assay: as above
[6] = molecular target: T1, C1r proenzyme (zymogen of complement protease C1r) (human)
T1 sequence (P00736 18-705, looked up): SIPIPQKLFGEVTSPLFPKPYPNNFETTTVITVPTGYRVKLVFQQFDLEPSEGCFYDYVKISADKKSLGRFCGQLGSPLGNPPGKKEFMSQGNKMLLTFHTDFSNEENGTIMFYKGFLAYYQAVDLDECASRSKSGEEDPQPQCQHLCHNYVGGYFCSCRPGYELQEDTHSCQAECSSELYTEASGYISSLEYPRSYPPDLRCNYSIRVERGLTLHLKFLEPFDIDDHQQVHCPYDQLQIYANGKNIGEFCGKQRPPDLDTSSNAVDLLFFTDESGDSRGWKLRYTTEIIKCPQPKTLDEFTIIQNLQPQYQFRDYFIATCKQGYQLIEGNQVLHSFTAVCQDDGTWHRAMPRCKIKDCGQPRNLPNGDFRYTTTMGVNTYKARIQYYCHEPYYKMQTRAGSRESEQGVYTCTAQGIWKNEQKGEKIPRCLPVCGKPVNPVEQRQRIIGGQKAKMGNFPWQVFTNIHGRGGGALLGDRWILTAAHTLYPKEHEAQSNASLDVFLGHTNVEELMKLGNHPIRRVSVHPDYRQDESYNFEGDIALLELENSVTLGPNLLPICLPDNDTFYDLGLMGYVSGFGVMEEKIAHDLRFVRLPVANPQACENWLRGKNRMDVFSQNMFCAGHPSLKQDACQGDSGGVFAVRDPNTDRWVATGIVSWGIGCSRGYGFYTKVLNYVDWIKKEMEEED

[7] = molecular target: T1, C1r proenzyme (zymogen of complement protease C1r) (human); remark: listed apart in the source

C1r proenzyme (zymogen of complement protease C1r)
Kd [1]: 8.5 nM | Kd [2]: 11.1 nM | Ka-1 (two-state model, first step, association) [3]: 30000 M⁻¹ s⁻¹ | Ka-2 (two-state model, second step, forward) [3]: 0.003 s⁻¹ | Kd [3]: 5.6 nM | Kd-1 (two-state model, first step, dissociation) [3]: 0.0022 s⁻¹ | Kd-2 (two-state model, second step, reverse) [3]: 0.00027 s⁻¹ | Ka-1 (two-state model, first step, association) [4]: 370000 M⁻¹ s⁻¹ | Ka-2 (two-state model, second step, forward) [4]: 0.0008 s⁻¹ | Kd [4]: 41.9 nM | Kd-1 (two-state model, first step, dissociation) [4]: 0.0183 s⁻¹ | Kd-2 (two-state model, second step, reverse) [4]: 0.00069 s⁻¹ | Ka-1 (two-state model, first step, association) [5]: 50000 M⁻¹ s⁻¹ | Ka-2 (two-state model, second step, forward) [5]: 0.0023 s⁻¹ | Kd [5]: 10.3 nM | Kd-1 (two-state model, first step, dissociation) [5]: 0.0027 s⁻¹ | Kd-2 (two-state model, second step, reverse) [5]: 0.00037 s⁻¹

Native C1 complex (first component of complement) (from UniProt P02745 23-245; P02746 28-253; P02747 29-245)
Kd [1]: 0.8 nM

eSALO-E58A (natural protein)
IC50 of inhibition of classical-pathway hemolysis (antibody-sensitized sheep erythrocytes, 0.5% NHS) [6]: 1200 nM

eSALO-Y51F (natural protein)
IC50 of inhibition of classical-pathway hemolysis (antibody-sensitized sheep erythrocytes, 0.5% NHS) [6]: 14500 nM

zC1r-12SP (fragment of human C1r with its two CCP repeats and serine protease domain, S654A, zymogen-like) (domain or fragment)
Kd [2]: 0.7 nM | Ka-1 (two-state model, first step, association) [3]: 370000 M⁻¹ s⁻¹ | Ka-2 (two-state model, second step, forward) [3]: 0.0024 s⁻¹ | Kd [3]: 1.1 nM | Kd-1 (two-state model, first step, dissociation) [3]: 0.0038 s⁻¹ | Kd-2 (two-state model, second step, reverse) [3]: 0.00028 s⁻¹ | Ka-1 (two-state model, first step, association) [4]: 280000 M⁻¹ s⁻¹ | Ka-2 (two-state model, second step, forward) [4]: 0.0017 s⁻¹ | Kd [4]: 9 nM | Kd-1 (two-state model, first step, dissociation) [4]: 0.008 s⁻¹ | Kd-2 (two-state model, second step, reverse) [4]: 0.00077 s⁻¹ | Ka-1 (two-state model, first step, association) [5]: 260000 M⁻¹ s⁻¹ | Ka-2 (two-state model, second step, forward) [5]: 0.0018 s⁻¹ | Kd [5]: 2.5 nM | Kd-1 (two-state model, first step, dissociation) [5]: 0.0034 s⁻¹ | Kd-2 (two-state model, second step, reverse) [5]: 0.00041 s⁻¹

B1: eSALO-WT (SALO, salivary anticomplement from Lutzomyia longipalpis, expressed by HEK293(T) cells) (natural protein)
chain: SEDCENIFHDNAYLLKLDCEAGRVDPVEYDDISDEEIYEITVDVGVSSEDQEKVAKIIRECIAQVSTQDCTKFSEIYDCYMKKKICNYYPENM
modifications: sulfotyrosine at Y51 (X51; extent of sulfation not known); biotin (NHS-PEG4-biotin) where surface-captured in SPR
IC50 of inhibition of classical-pathway hemolysis (antibody-sensitized sheep erythrocytes, 0.5% NHS) [6]: 84.9 nM

B2: rSALO-WT (SALO expressed in Escherichia coli and refolded) (natural protein)
chain: SEDCENIFHDNAYLLKLDCEAGRVDPVEYDDISDEEIYEITVDVGVSSEDQEKVAKIIRECIAQVSTQDCTKFSEIYDCYMKKKICNYYPENM
IC50 of inhibition of classical-pathway hemolysis (antibody-sensitized sheep erythrocytes, 0.5% NHS) [7]: 16000 nM
